# Test results from US6140490, “High affinity nucleic acid ligands of complement system proteins” (NeXstar Pharmaceuticals, Inc.).
# B1: clone 50 (ssRNA)
# RNA: GGGAGGACGAUGCGGGUGGAGUGGAGGUAUAACGGCCGGUAGCGCAUCCCACUCGGGUCUGCGGUAGACGACUCGCCCGA
# modifications: 2'-NH2 C and U
# B2: truncated C5 ligand (FIG. 3) (ssRNA)
# RNA: GACGAUGCGGUCUCAUGCGUCGAGUGUGAGUUUACCUUCGUC
# modifications: 2'-F C and U
# How the values were obtained:
# Complement C1q = Complement C1q (Homo sapiens, UniProt P02745;P02746;P02747 P02745:23-245,P02746:28-253,P02747:29-245); assay: filter; MgPBS, 37 C; still binds C1q on immune complexes; competed by SAP, beta-amyloid, CRP and A-chain 14-26 peptide; conditions: tags: Quidel; chain copies: 6; label: 32P
# Procedure: Individual cloned DNA was T7 transcribed with α-[^32P]-ATP and the full length [^32P]-2'-NH_2-RNA or 2'-F-RNA was gel-purified (as above). RNA was suspended at approximately 5,000 cpm per 30 µl sample (<10 pM), and aliquots were incubated with various concentrations of C1q, C3 or C5 in MgPBS for 10 minutes at 37° C. Samples were then filtered through nitrocellulose, the filters washed with buffer and dried under an infrared lamp, and counted with addition of scintillation fluid (Ecoscint A, National Diagnostics, Atlanta, Ga.). A background sample of RNA alone was run in parallel. […] Filters were washed and counted.
# RNA ligand binding to C1q was also measured in the presence of immune-complexes, which would block the binding of ligands to C1q head-groups. Immune complexes (IC) were formed by mixing 620 µg BSA at equivalence with 1 ml of rabbit anti-BSA (Sigma, St. Louis, Mo.) plus PEG 8000 added to 1% final concentration, and then the samples were incubated overnight at 4° C. The IC were pelleted by microfugation at 12,000 rpm for 10 minutes, washed five times with PBS, and suspended in 1 ml of MgPBS. […] Samples were incubated for 30 minutes at room temperature, microfuged, and the pellets and supernatants counted.
# Complement C5 = Complement C5 (Homo sapiens, UniProt P01031;P01031 P01031:19-673,P01031:678-1676); assay: minimal structure from boundary analysis; called 38mer in text; conditions: tags: Quidel
# Procedure: A secondary structure for an inhibitory C5 Nucleic Acid Ligand as determined by current art (Green et al. (1995) Chem & Biol. 2:683) is shown in FIG. 3 (SEQ ID NO:75). The smallest structure which would bind C5 is determined by: a) radiolabeling the C5 Nucleic Acid Ligand at both the 3' and the 5' end; b) treating the labeled Nucleic Acid Ligand by partial base-hydrolyzed to split a portion of the bonds between nucleotides; c) incubating the partially hydrolyzed Nucleic Acid Ligand with C5 protein and then eluting the bound Nucleic Acid Ligand; and d) analyzing the eluted Nucleic Acid Ligand on gels. In this procedure, the Nucleic Acid Ligand initially binds to C5 as bases are removed from the Nucleic Acid Ligand. When an essential base is removed, the Nucleic Acid Ligand is no longer able to bind. This first essential base determines the boundary of the minimal Nucleic Acid Ligand structure. For a human C5 Nucleic Acid Ligand the smallest binding structure is believed to comprise the sequence with proposed base-pairing pattern shown in FIG. 3.
# Complement C1q, sequence (P02745 23-245, chain 1 of 3): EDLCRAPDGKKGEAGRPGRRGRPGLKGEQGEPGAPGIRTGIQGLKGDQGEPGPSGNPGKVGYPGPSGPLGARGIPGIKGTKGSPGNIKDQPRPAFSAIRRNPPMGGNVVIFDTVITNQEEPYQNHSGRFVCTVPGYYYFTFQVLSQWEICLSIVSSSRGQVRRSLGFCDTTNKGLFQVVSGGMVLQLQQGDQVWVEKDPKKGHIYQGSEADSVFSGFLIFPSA
# Complement C1q, sequence (P02746 28-253, chain 2 of 3): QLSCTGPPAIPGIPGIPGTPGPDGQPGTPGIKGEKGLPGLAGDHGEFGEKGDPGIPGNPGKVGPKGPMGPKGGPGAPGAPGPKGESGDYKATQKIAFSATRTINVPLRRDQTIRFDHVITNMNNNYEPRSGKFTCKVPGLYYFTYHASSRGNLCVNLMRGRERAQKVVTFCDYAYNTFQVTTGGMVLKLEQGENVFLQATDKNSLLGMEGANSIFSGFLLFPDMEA
# Complement C1q, sequence (P02747 29-245, chain 3 of 3): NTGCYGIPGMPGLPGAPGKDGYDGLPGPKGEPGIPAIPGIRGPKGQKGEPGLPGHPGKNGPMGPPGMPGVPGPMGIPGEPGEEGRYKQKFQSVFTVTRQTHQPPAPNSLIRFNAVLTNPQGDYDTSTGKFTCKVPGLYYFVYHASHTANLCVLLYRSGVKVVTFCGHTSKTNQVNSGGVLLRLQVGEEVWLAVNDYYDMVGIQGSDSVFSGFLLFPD
# Complement C5, sequence (P01031 19-673, chain 1 of 2): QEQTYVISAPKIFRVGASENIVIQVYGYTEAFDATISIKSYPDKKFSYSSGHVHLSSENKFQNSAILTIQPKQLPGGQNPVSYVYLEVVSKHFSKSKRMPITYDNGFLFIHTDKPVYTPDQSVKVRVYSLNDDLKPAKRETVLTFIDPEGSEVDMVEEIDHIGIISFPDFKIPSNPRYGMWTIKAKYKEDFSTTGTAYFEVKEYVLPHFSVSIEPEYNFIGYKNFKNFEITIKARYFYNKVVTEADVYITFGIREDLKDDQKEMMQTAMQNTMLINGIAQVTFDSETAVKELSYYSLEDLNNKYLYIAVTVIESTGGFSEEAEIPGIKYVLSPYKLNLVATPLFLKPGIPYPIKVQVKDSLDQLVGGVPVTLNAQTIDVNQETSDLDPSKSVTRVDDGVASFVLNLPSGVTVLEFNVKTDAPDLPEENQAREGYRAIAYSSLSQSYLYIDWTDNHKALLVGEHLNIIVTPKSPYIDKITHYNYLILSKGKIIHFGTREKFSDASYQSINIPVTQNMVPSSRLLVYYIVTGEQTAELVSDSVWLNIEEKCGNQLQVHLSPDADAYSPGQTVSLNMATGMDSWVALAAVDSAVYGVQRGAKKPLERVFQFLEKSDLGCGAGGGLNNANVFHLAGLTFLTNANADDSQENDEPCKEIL
# Complement C5, sequence (P01031 678-1676, chain 2 of 2): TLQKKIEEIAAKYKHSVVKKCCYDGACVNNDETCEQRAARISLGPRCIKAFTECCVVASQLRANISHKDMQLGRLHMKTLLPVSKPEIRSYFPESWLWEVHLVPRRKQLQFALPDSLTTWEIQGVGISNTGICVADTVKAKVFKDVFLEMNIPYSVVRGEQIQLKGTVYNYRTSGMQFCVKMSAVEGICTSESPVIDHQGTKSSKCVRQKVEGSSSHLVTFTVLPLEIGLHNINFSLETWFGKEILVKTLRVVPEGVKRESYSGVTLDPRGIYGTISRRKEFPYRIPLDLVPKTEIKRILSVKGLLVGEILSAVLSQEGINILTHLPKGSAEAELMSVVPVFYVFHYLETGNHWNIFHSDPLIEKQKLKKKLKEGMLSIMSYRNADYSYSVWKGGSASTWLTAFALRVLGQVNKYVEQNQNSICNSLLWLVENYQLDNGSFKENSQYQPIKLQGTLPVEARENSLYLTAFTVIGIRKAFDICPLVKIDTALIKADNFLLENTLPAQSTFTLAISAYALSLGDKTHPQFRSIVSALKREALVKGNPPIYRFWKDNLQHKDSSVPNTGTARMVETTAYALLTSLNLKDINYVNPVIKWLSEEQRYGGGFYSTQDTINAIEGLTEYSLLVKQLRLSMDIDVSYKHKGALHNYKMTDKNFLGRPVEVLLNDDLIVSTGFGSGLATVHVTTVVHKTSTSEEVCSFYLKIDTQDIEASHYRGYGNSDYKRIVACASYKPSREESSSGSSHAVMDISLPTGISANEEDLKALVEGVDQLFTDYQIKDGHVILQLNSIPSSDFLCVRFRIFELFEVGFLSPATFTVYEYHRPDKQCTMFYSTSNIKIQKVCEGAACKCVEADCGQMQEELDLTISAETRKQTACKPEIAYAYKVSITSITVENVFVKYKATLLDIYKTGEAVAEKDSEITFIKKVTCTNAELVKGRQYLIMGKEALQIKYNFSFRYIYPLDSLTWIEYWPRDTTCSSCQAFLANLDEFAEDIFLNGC
Binder,Kd (Complement C1q) [pM],binding result (Complement C5)
B1,979,
B2,,binds
